According to US20020098527A1 (Kyowa Kirin, published 2002):

B1: mouse anti-CCR4 monoclonal antibody KM2160 (antibody, mouse IgG1, V domains shown)
VH: EVQLVESGGDLMKPGGSLKISCAASGFIFSNYGMSWVRQTPDMRLEWVATISSASTYSYYPDSVKGRFTISRDNAENSLYLQMNSLRSEDTGIYYCGRHSDGNFAFGYWGRGTLVTVSA
VL: DVLMTQTPLSLPVSLGDQASISCRSSRNIVHINGDTYLEWYLQRPGQSPKLLIYKVSNRFSGVPDRFSGSGSGTDFTLKISRVEAEDLGVYYCFQGSLLPWTFGGGTRLEIRR
notes: Mouse IgG1 class with a kappa L chain, produced by hybridoma KM2160; also called anti-CCR4 mouse antibody KM2160
B2: anti-CCR4 chimeric antibody KM2760 (antibody, V domains shown)
VH: B1 VH
VL: B1 VL
notes: Human chimeric antibody: CH is human IgG1 subclass and CL is human kappa class (vector pKANTEX93); It was expressed in rat YB2/0 cells; It was used biotinylated in the flow cytometry assays

Legend:
[1] = target: T1, hCCR4 partial peptide (Compound 1) (human, conjugated with thyroglobulin (THY) using SMCC as the crosslinking agent); assay: ELISA on plate-coated hCCR4 partial peptide conjugate
T1 construct: Synthetic peptide, coated on ELISA plates as a THY conjugate
T1 peptide: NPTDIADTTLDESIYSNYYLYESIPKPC

[2] = target: T2, human CC chemokine receptor 4 (human CCR4) (human, UniProt P51679 1-360); assay: flow cytometry (immunofluorescent method) on hCCR4-high-expressing EL-4 cells
T2 construct: Expressed on mouse EL-4 cells transfected with hCCR4 DNA (CCR4/EL-4); also called hCCR4; K5-5
T2 sequence: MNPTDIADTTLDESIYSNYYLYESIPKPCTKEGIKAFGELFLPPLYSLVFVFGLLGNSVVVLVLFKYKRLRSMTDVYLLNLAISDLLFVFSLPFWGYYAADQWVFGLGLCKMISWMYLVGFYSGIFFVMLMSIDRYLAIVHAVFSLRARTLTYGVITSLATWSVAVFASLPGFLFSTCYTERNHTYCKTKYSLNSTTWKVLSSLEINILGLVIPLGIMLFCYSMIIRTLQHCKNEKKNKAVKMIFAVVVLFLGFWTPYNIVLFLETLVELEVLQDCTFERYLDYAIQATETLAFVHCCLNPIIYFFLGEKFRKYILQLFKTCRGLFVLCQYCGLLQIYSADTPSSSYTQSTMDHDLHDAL
Procedure: They were selected by an immunofluorescent method using KM2160 prepared in Example 1(5). Into a 96 well U shape plate, 2×10⁵ cells of each of selected several tens of the gene-introduced clones was dispensed. KM2160 labeled with biotin by a known method (Enzyme Antibody Method, published by Gakusai Kikaku) was diluted to 5 μg/ml with a buffer for FACS (1% BSA-PBS, 0.02% EDTA, 0.05% NaN₃, pH 7.4), human IgG (manufactured by Welfide) was diluted to 3.75 mg/ml to prevent nonspecific staining, each of the thus diluted antibody solution was dispensed at 200 μl/well, and the mixture was allowed to react in ice for 30 minutes. As a negative control, biotinylated anti-IL-5R antibody (WO 97/10354) was used at the same concentration. After washing twice with 200 μl/well of the buffer, streptoavidin-PE (manufactured by Becton Dickinson Japan) was dispensed at 20 μl/well. Thirty minutes after the reaction in ice in the dark, the cells were washed three times with 200 μl/well and finally suspended to 500 μl, and the fluorescence intensity was measured by a flow cytometer to select one cell line having the highest fluorescence intensity.
Reactivity of the purified anti-CCR4 chimeric antibody KM2760 with the hCCR4-high-expressing cell (hereinafter referred to as “CCR4/EL-4”) produced in 3(4) of Example 2 was measured in the same manner as in 3(4) of Example 2.

[3] = target: T1, hCCR4 partial peptide (Compound 1); assay: ELISA, THY-peptide conjugate coated at 10 µg/ml, antibody concentration varied
Procedure: (§1) The conjugate prepared in the above manner was dispensed at 10 μg/ml and 50 μl/well into a 96 well plate for EIA (manufactured by Greiner) and adhered thereto by incubating it at 4° C. overnight. After washing with PBS, 1% BSA-containing PBS (hereinafter referred to as “1% BSA-PBS”) was added at 100 μl/well, and the mixture was allowed to react at room temperature for 1 hour to block the remaining active groups. After removing 1% BSA-PBS, diluted solutions of a transformant culture supernatant, a purified mouse antibody or a purified human chimeric antibody was dispensed at 50 μl/well, and the mixture was allowed to react at room temperature for 1 hour. […] After the reaction, each well was washed with Tween-PBS, ABTS solution (a solution prepared by dissolving 0.55 g of 2,2′-azino-bis(3-ethylbenzothiazoline-6-sulfonic acid)ammonium in 1 liter of 0.1 M citrate buffer (pH 4.2), and adding 1 μl/ml of hydrogen peroxide just before use) was dispensed at 50 μl/well for color developing, and the absorbance at 415 nm (hereinafter referred to as “OD₄₁₅”) was measured.
(§2) Reactivity of the purified anti-CCR4 chimeric antibody KM2760 to human CCR4 and mouse CCR4 was measured by ELISA shown in 2(3) of Example 2. […]

[4] = target: T3, mCCR4 partial peptide (Compound 2) (mouse, conjugated with thyroglobulin (THY) using SMCC as the crosslinking agent); assay: as above
T3 construct: Synthetic peptide, coated on ELISA plates as a THY conjugate
T3 peptide: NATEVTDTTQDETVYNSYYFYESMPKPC
Procedure: as §1, §2

| Binder | binding result [1] | binding result [2] | binding result [3] | binding result [4] |
| --- | --- | --- | --- | --- |
| B1 | binds | – | – | – |
| B2 | – | binds | binds | binds |
